According to the supplement of paper PMC9732359:
± gives the uncertainty stated by the source.

Test: protein stability index of a GFP-peptide fusion (yeast GPS) (PSI 1-4); higher = more stable; sorted into four equal gates, so the index is relative within each strain
Outline: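 Mid-log yeast cultures in leucine-free medium, carrying a pooled plasmid library, were sorted into four equal gates by their GFP/Cherry fluorescence ratio. Each plasmid expressed Cherry along with GFP fused upstream of a tiled 17-residue yeast protein peptide. Plasmids recovered from each gate were PCR-amplified and Illumina-sequenced, with reads assigned to strains by barcodes. The protein stability index was obtained by summing each gate's read frequency weighted by its gate number.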

Row | Sequence | protein stability index (doa10∆) | protein stability index (pdr5∆) | protein stability index (san1∆) | protein stability index (ubr1∆)
1 | AIPNPEDVVAISSRTFG [RPS0A] | 3.22 ± 0.1 | 2.94 ± 0.05 | 2.91 ± 0.077 | 2.94 ± 0.043
2 | AIRADPAFKPTEKKFTK [RPL5] | 3.11 ± 0.26 | 3.15 ± 0.3 | 3.18 ± 0.2 | 3.2 ± 0.24
3 | AIRKAPHNSKSLGFLQQ [RPN3] | 2.9 ± 0.082 | 2.7 ± 0.086 | 2.84 ± 0.083 | 2.54 ± 0.13
4 | AISQSLRDESLTVDNLS [PRE5] | 2.96 ± 0.093 | 3.15 ± 0.089 | 3.33 ± 0.078 | 3.32 ± 0.06
5 | AISTGNWSLKRFKMERA [RET1] | 1.94 ± 0.097 | 1.93 ± 0.11 | 2.44 ± 0.11 | 1.68 ± 0.077
6 | AITHMIDALGTEFSKND [SCL1] | 2.47 ± 0.069 | 2.54 ± 0.044 | 2.7 ± 0.08 | 2.61 ± 0.031
7 | AIVLPMKRADKFKDMGI [RPT5] | 2.39 ± 0.096 | 3.11 ± 0.24 | 3.09 ± 0.17 | 3.09 ± 0.16
8 | AKEKERMLEEAIDHLKA [YIL149C/MLP2] | 3.03 ± 0.05 | 3.12 ± 0.054 | 3.16 ± 0.056 | 3.01 ± 0.049
9 | AKEVKVLYHTSGAITFV [PRP8] | 2.12 ± 0.055 | 2.5 ± 0.064 | 2.58 ± 0.055 | 2.72 ± 0.068
10 | AKGKSGVQTAYIDYSSK [RRP40] | 2.54 ± 0.24 |  |  | 2.91 ± 0.24
11 | AKIDVMLTIARLGFFYN [RPN7] | 2.44 ± 0.15 | 2.89 ± 0.14 | 3.42 ± 0.14 | 3.14 ± 0.094
12 | AKLSDTLIIDQVRKDLG [NUT1] | 2.83 ± 0.11 | 2.32 ± 0.16 | 2.7 ± 0.13 | 2.85 ± 0.09
13 | AKNFSAQKRVVSYMMPS [SRB8] | 2.02 ± 0.17 |  | 2.28 ± 0.15 | 1.96 ± 0.13
14 | AKQAKIRAGEFDVVLTT [SNF2] | 3.56 ± 0.11 | 3.3 ± 0.13 | 2.57 ± 0.12 | 3.23 ± 0.11
15 | AKRAQFRKKRKFELGRQ [RPS8A] | 3.24 ± 0.08 | 3.28 ± 0.077 | 3.31 ± 0.066 | 3.02 ± 0.081
16 | AKTFGASVRIFLYPSNI [RPL33A] | 2.38 ± 0.057 | 2.65 ± 0.056 | 2.5 ± 0.066 | 2.59 ± 0.054
17 | ALDFRNVSIVANYIKER [SMC4] | 1.51 ± 0.069 | 2.04 ± 0.058 | 1.51 ± 0.11 | 1.82 ± 0.058
18 | ALECRLASAIASGLLRA [CSN12] | 1.58 ± 0.072 | 2.08 ± 0.082 | 1.77 ± 0.1 | 1.94 ± 0.075
19 | ALGMMTRISSQFEKSRK [RET1] | 1.39 ± 0.066 | 1.27 ± 0.09 | 1.37 ± 0.17 | 1.08 ± 0.06
20 | ALKDPQTDADRVKDPQW [RIP1] | 3.26 ± 0.081 | 3.68 ± 0.23 | 3.18 ± 0.25 | 3.6 ± 0.16
21 | ALLIAGHDADDGYQLFH [PUP2] | 2.29 ± 0.16 | 2.86 ± 0.17 | 3.22 ± 0.12 | 2.66 ± 0.13
22 | ALMRCSFEETVEILFEA [RPO21] | 3.12 ± 0.082 | 2.6 ± 0.079 | 3.06 ± 0.062 | 2.85 ± 0.069
23 | ALRALQENGTIFRGSLI [YDL088C/ASM4] | 2.02 ± 0.11 | 1.68 ± 0.076 | 1.28 ± 0.1 | 1.53 ± 0.092
24 | ALSAYHKVQTKLTRELE [RPS7B] | 2.4 ± 0.055 | 2.54 ± 0.058 | 2.33 ± 0.065 | 2.58 ± 0.043
25 | ALSGNEGDASPFTDITV [RPB2] | 2.99 ± 0.14 | 3.12 ± 0.075 | 3.12 ± 0.099 | 3.1 ± 0.15
26 | ALTTIKGVGRRYSNLVC [RPS18A] | 2.56 ± 0.089 | 2.4 ± 0.084 | 2.92 ± 0.12 | 2.62 ± 0.077
27 | ALVAGIERYPLKVTKKH [RPL27A] | 2.17 ± 0.27 | 2.51 ± 0.12 | 1.87 ± 0.24 | 

Row | Sequence | protein stability index (doa10∆) | protein stability index (pdr5∆) | protein stability index (san1∆) | protein stability index (ubr1∆)
28 | AMEFIFGNSLICEDPET [SMC2] | 2.38 ± 0.073 | 2.25 ± 0.054 | 1.37 ± 0.094 | 1.88 ± 0.049
29 | AMNDKDLTMGQVGERIK [RPO21] | 3.31 ± 0.17 | 3.26 ± 0.14 | 2.82 ± 0.13 | 3.08 ± 0.099
30 | AMREVNDEKRVKEEYDI [YIL149C/MLP2] | 2.62 ± 0.25 | 2.57 ± 0.17 |  | 
31 | ANEQLKLFNRIVERETN [CSN12] | 2.5 ± 0.12 | 2.73 ± 0.16 | 1.71 ± 0.24 | 2.81 ± 0.15
32 | ANGGSTIISPHKDIPEE [DSN1] | 3.44 ± 0.21 | 3.44 ± 0.16 | 3.57 ± 0.079 | 2.88 ± 0.28
33 | ANHDDQDDIDEMVENSS [SRP68] | 3.1 ± 0.1 | 3.2 ± 0.11 | 3.14 ± 0.095 | 3.13 ± 0.07
34 | ANIFRIHSKSMSVERGI [RPT1] | 3.16 ± 0.11 | 3.01 ± 0.14 | 3.18 ± 0.13 | 2.9 ± 0.13
35 | ANLLQINVDNDPFFAQS [YML103C/NUP188] | 3.04 ± 0.059 | 3.14 ± 0.06 | 2.88 ± 0.055 | 2.93 ± 0.094
36 | ANNDINSLLSNFNDIPP [YDL088C/ASM4] | 2.56 ± 0.097 | 2.87 ± 0.18 | 2.67 ± 0.27 | 3.13 ± 0.14
37 | ANNGAAFSPLTTTRIQS [MED2] | 2.67 ± 0.081 | 2.91 ± 0.06 | 2.65 ± 0.066 | 2.66 ± 0.044
38 | ANNYSSNIGNNSINNNN [YDL088C/ASM4] | 2.51 ± 0.071 | 3.19 ± 0.078 | 2.94 ± 0.085 | 2.76 ± 0.054
39 | ANPKKLALMTAHSLSPK [CDC53] | 2.43 ± 0.052 | 2.78 ± 0.054 | 2.72 ± 0.057 | 2.32 ± 0.036
40 | ANVELTPSNIRSLCEVL [RPC34] | 1.32 ± 0.053 | 1.68 ± 0.064 | 1.69 ± 0.078 | 2.02 ± 0.07
41 | APGKVELAINLIRFDES [SMC2] | 3.12 ± 0.16 | 3.11 ± 0.11 | 3.52 ± 0.12 | 2.83 ± 0.08
42 | APIKKIIERYIKSKADA [PRP8] | 3.11 ± 0.12 | 3.24 ± 0.12 | 2.98 ± 0.079 | 3.13 ± 0.11
43 | APLKALVQEQVREFQRR [BRR2] | 1.26 ± 0.1 | 1.24 ± 0.092 | 1.3 ± 0.13 | 1.26 ± 0.13
44 | APLNFNPIIENNVDNKY [SSN2] | 2.69 ± 0.052 | 2.97 ± 0.049 | 2.79 ± 0.046 | 2.88 ± 0.046
45 | APLNLEIPAYEFDGDKV [RIP1] | 2.6 ± 0.099 | 2.54 ± 0.096 | 2.55 ± 0.077 | 2.72 ± 0.077
46 | APNHSPEIDNLDDLVVL [RRP6] | 3.16 ± 0.11 | 3.51 ± 0.11 | 3 ± 0.15 | 2.71 ± 0.088
47 | APPQRPRFNRENKVSPA [RPS26A] | 3.38 ± 0.15 | 2.83 ± 0.17 | 3 ± 0.072 | 2.95 ± 0.12
48 | AQANNNNNGLPQNGNIN [GAL11] | 3.04 ± 0.049 | 3.11 ± 0.049 | 3.05 ± 0.056 | 2.98 ± 0.038
49 | AQAQAQAQAQAHAQHQP [GAL11] | 2.81 ± 0.029 | 2.926 ± 0.023 | 2.834 ± 0.027 | 3.032 ± 0.024
50 | AQEDVPYLLPYILEAEA [QCR7] | 2.02 ± 0.048 | 1.79 ± 0.046 | 2.03 ± 0.067 | 1.86 ± 0.038
51 | AQFRVPRYHSKNSFQQA [SWP82] | 2.5 ± 0.075 | 2.57 ± 0.065 | 2.37 ± 0.083 | 2.62 ± 0.047
52 | AQKYASIVGVDLSSAAS [FAS2] | 2.13 ± 0.069 | 2.21 ± 0.082 | 1.66 ± 0.12 | 1.75 ± 0.062
53 | AQNQGMFGAKPAGTSLF [YGL172W/NUP49] | 2.32 ± 0.054 | 2.36 ± 0.064 | 2.34 ± 0.075 | 2.37 ± 0.04
